{"source": "patent US20130260436A1", "about": "“Methods of Identifying and Characterizing Natural Product Gene Clusters” (Victoria LInk Limited, priority 2010, published 2013)", "molecules": {"B1": {"name": "The peptide carrier protein of BpsA (bPCP), purified recombinant His6 tagged (protein)", "chain": "FVAPRTETEKEIAAVWEKALRRENASVQDDFFESGGNSLIAVGLVRELNARLGVSLPLQSVLESPTIEKLARRLE"}}, "key": {"[1]": {"target": "PP1183, putative phosphopantetheinyl transferase of Pseudomonas putida KT2440 (Pseudomonas putida KT2440)", "experiment": "cell-based or functional assay"}, "[2]": {"target": "Sfp, phosphopantetheinyl transferase of Bacillus subtilis subsp. spizizenii ATCC6633 (Bacillus subtilis subsp. spizizenii ATCC6633)", "experiment": "cell-based or functional assay"}, "[3]": {"target": "PcpS, phosphopantetheinyl transferase of Pseudomonas aeruginosa PAO1 (Pseudomonas aeruginosa PAO1)", "experiment": "cell-based or functional assay"}, "Sfp": {"target": "Sfp (Bacillus spizizenii, UniProt G4NQW2)", "sequence (G4NQW2 entry or part of it)": "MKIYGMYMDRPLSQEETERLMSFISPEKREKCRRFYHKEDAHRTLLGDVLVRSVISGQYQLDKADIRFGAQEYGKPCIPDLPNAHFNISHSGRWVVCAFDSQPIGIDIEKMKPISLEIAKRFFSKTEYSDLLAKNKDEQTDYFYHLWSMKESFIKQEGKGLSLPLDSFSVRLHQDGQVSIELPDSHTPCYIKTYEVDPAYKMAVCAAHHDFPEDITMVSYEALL", "experiment": "Carrier protein (CoA) competition assay with Sfp", "assay_type": "biochemical, B. subtilis subsp. spizizenii ATCC6633", "conditions": "competition with BpsA for limited CoA (250 nM), read-out: IC50 for carrier protein mediated inhibition of BpsA activation", "source_text": "(§1) Another aspect of the invention described is a CoA competition assay for PPTase characterization. Assays of this type consist of two phases. In the first phase is the competition phase in which apo-BpsA and a purified carrier protein (CP) to be characterized compete for a limited pool of CoA which is attached to either the CP to be characterized or apo-BpsA by a PPTase. During this first phase, only the substrates necessary for phosphopantetheinylation are present. Following the competition phase, the production phase is initiated. In the production phase, the substrates required for pigment synthesis by holo-BpsA (L-gln and ATP) are added to reaction vessels and the velocity (A590/s) of the resulting reaction measured. […]\n(§2) One limitation of the approach outlined above for determination of PPTase kinetic parameters is that it only provides information about a PPTase of interest with a single carrier protein substrate (that of BpsA). […] Four carrier proteins were employed in assessed using this assay, these were: The peptide carrier protein of BpsA (bPCP), the peptide carrier protein of the first module of the Pseudomonas aeruginosa NRPS PvdD (pPCP), the peptide carrier protein of the Microcysitis aeruginosa NRPS/PKS MycG (mPCP) and the aryl carrier protein from Nostoc punctiforme protein HetM (npArCP). […]"}, "PP1183": {"target": "PP1183 (Pseudomonas putida, UniProt Q88NM4)", "sequence (Q88NM4 entry or part of it)": "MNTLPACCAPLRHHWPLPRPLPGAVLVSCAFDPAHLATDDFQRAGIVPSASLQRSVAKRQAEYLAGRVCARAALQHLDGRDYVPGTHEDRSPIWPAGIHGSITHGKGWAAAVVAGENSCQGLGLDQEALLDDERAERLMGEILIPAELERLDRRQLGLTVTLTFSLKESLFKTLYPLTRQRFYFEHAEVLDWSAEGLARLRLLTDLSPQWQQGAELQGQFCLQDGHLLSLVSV", "experiment": "Carrier protein (CoA) competition assay with PP1183", "assay_type": "biochemical, P. putida KT2440", "conditions": "competition with BpsA for limited CoA (250 nM), read-out: IC50 for carrier protein mediated inhibition of BpsA activation", "source_text": "as §1, §2"}, "PcpS": {"target": "PcpS (Pseudomonas aeruginosa, UniProt Q9I4H2)", "sequence (Q9I4H2 entry or part of it)": "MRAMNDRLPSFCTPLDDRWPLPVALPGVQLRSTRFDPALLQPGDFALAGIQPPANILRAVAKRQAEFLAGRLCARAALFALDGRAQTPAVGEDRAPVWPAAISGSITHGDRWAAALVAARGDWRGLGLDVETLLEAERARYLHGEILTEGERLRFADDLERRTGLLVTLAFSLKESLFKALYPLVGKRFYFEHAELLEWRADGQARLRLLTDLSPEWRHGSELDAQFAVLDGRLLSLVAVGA", "experiment": "Carrier protein (CoA) competition assay with PcpS", "assay_type": "biochemical, P. aeruginosa PAO1", "conditions": "competition with BpsA for limited CoA (250 nM), read-out: IC50 for carrier protein mediated inhibition of BpsA activation", "source_text": "as §1, §2"}}}
{"molecule": "B1", "values": [{"measurement": "IC50 (carrier protein competition with BpsA for limiting CoA)", "setting": "[1]", "value": 300, "unit": "nM"}, {"measurement": "kcat/Km (estimate derived from IC50) (Min^-1 · µM^-1)", "setting": "[1]", "value": 3.88}, {"measurement": "IC50 (carrier protein competition with BpsA for limiting CoA)", "setting": "[2]", "value": 720, "unit": "nM"}, {"measurement": "kcat/Km (estimate derived from IC50) (Min^-1 · µM^-1)", "setting": "[2]", "value": 0.69}, {"measurement": "IC50 (carrier protein competition with BpsA for limiting CoA)", "setting": "[3]", "value": 710, "unit": "nM"}, {"measurement": "kcat/Km (estimate derived from IC50) (Min^-1 · µM^-1)", "setting": "[3]", "value": 7.77}, {"measurement": "IC50", "setting": "Sfp", "value": 720, "unit": "nM"}, {"measurement": "IC50", "setting": "PP1183", "value": 300, "unit": "nM"}, {"measurement": "IC50", "setting": "PcpS", "value": 710, "unit": "nM"}]}
